Laboratory results taken from patent US20200123236A1.

Assays:
[1] = molecular target: BG505 SOSIP.664 Env trimer (HIV-1); assay: negative stain EM of the complex, 6:1 molar ratio
[2] = molecular target: HIV-1 Env of virus strain 6471.V1.C16 (HIV-1); assay: cell-based or functional assay

Row | Binder | Bi-ScFvs bound per Env trimer (Bi-ScFv per Env trimer) [1] | IC50, neutralization of Env-pseudovirus on TZM-bl cells [2] [µg/mL]
1 | Bi-ScFv dVRC01-5X-PGT121 (bispecific antibody) scFv: SLTQSPGTLSLSPGETAIISCRTSQYGSLAWYQQRPGQAPRLVIYSGSTRAAGIPDRFSGSRWGPDYNLTISNLESGDFGVYYCQQYEFFGQGTKVQVDIKGGGGSGGGGSGGGGSQVQLVQSGGQMKKPGESMRISCRASGYEFIDCTLNWIRLAPGKRPEWMGWLKPRGGAVNYARPLQGRVTMTRDVYSDTAFLELRSLTVDDTAVYFCTRGKNCDYNWDFEHWGRGTPVIVSSGGGGSGGGGSGGGGSGGGGSGGGGSSDISVAPGETARISCGEKSLGSRAVQWYQHRAGQAPSLIIYNNQDRPSGIPERFSGSPDSPFGTTATLTITSVEAGDEADYYCHIWDSRVPTKWVFGGGTTLTVLGGGGSGGGGSGGGGSQMQLQESGPGLVKPSETLSLTCSVSGASISDSYWSWIRRSPGKGLEWIGYVHKSGDTNYSPSLKSRVNLSLDTSKNQVSLSLVAATAADSGKYYCARTLHGRRIYGIVAFNEWFTYFYMDVWGNGTQVTVSSGSGHHHHHH | 3 | 
2 | 10E8 IgG (antibody, V domains shown) VH: EVQLVESGGGLVKPGGSLRLSCSASGFDFDNAWMTWVRQPPGKGLEWVGRITGPGEGWSVDYAAPVEGRFTISRLNSINFLYLEMNNLRMEDSGLYFCARTGKYYDFWSGYPPGEEYFQDWGRGTLVTVSS VL: SYELTQETGVSVALGRTVTITCRGDSLRSHYASWYQKKPGQAPILLFYGKNNRPSGVPDRFSGSASGNRASLTISGAQAEDDAEYYCSSRDKSGSRLSVFGGGTKLTVL |  | 4.98
